In general, Kd refers to the free concentration of one partner at which half of the binding sites on the other are occupied at equilibrium, for simple one-to-one binding.

The target in test [1] is T1, gD tagged human FcRH4 on SVT2 cells (human, UniProt Q96PJ5 20-515).
T1 construct: whole, on cells; also called huFcRH4; IRTA1; not shown: gD tag; the construct for this FcRH is not described
T1 sequence (looked up): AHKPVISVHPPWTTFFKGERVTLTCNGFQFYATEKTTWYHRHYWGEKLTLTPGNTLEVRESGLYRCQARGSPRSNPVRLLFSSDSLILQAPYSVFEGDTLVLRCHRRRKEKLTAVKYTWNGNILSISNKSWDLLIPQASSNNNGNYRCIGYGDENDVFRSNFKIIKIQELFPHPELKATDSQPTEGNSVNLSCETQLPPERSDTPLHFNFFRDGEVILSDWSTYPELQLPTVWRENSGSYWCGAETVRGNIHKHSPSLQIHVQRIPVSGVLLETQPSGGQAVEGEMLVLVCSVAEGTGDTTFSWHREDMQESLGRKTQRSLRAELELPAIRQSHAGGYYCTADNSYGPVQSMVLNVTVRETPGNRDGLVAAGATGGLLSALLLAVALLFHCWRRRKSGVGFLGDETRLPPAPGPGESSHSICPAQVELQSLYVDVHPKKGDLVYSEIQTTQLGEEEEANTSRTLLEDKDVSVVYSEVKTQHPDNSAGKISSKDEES
Description: FACS, SVT2.MSCV.gD.FcRH4 cells, PE mu anti-human IgG. A general note: In flow cytometry, cells or beads pass a laser one at a time.

In test [2] the target is T2, gD tagged human FcRH1 on SVT2 cells (human, UniProt Q96LA6 17-429).
T2 construct: whole, on cells; also called huFcRH1; not shown: gD tag
T2 sequence (looked up): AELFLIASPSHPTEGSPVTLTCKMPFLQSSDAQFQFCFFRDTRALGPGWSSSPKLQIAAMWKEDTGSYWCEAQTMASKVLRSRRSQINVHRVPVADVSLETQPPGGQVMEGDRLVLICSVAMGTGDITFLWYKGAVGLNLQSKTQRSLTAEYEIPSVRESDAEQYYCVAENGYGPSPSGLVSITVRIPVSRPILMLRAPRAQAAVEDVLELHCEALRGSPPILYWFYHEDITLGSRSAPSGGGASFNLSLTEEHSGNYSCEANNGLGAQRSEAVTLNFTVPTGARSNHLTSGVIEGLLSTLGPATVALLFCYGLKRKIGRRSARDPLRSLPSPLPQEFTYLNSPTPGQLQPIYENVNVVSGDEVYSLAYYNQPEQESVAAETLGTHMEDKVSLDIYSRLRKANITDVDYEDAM
Kind of test: FACS, SVT2.MSCV.gD.FcRH1 cells, PE mu anti-human IgG.

Test [3] has as its target T3, gD tagged human FcRH3 on SVT2 cells (human, UniProt Q96P31 18-734).
T3 construct: whole, on cells; also called huFcRH3; not shown: gD tag; the construct for this FcRH is not described
T3 sequence (looked up): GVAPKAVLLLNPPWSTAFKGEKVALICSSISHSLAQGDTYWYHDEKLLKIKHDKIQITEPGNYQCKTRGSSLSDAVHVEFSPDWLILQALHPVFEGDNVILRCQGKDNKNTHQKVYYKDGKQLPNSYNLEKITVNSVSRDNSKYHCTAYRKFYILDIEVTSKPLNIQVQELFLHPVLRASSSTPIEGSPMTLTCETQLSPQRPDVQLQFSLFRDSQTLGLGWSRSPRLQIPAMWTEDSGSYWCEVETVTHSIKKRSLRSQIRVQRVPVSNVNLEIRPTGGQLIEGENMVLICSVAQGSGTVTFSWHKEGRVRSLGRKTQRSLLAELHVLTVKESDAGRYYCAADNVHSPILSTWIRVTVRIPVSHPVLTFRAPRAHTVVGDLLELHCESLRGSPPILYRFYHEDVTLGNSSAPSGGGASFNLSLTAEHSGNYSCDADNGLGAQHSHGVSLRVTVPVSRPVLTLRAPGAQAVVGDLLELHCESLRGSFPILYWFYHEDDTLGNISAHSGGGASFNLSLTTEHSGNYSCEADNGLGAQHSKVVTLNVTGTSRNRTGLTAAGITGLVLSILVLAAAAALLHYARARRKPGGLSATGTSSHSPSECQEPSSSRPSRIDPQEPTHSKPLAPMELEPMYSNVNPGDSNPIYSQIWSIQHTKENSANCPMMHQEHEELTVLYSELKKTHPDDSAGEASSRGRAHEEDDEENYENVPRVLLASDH
Kind of test: FACS, SVT2.MSCV.gD.FcRH3 cells, PE mu anti-human IgG.

Test [4] concerns the target T4, gD tagged human FcRH2 on SVT2 cells (human, UniProt Q96LA5 20-508).
T4 construct: whole, on cells; also called huFcRH2; not shown: gD tag; the construct for this FcRH is not described
T4 sequence (looked up): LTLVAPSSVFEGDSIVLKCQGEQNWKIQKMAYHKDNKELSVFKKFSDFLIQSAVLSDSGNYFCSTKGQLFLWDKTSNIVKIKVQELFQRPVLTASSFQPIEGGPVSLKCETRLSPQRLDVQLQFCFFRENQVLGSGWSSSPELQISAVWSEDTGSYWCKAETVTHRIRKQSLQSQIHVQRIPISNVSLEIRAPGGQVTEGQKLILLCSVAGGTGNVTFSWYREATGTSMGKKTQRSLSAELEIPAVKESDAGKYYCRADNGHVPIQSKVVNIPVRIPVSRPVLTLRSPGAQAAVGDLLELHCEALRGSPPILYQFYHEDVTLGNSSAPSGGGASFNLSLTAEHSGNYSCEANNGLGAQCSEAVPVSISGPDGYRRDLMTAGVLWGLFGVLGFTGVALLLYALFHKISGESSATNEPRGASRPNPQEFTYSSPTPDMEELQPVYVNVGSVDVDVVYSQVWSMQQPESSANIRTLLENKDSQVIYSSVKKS
Kind of test: FACS, SVT2.MSCV.gD.FcRH2 cells, PE mu anti-human IgG.

Test [5] concerns the target T5, gD tagged human FcRH6 on SVT2 cells (human, UniProt Q6DN72 20-434).
T5 construct: whole, on cells; also called huFcRH6; not shown: gD tag; the construct for this FcRH is not described
T5 sequence (looked up): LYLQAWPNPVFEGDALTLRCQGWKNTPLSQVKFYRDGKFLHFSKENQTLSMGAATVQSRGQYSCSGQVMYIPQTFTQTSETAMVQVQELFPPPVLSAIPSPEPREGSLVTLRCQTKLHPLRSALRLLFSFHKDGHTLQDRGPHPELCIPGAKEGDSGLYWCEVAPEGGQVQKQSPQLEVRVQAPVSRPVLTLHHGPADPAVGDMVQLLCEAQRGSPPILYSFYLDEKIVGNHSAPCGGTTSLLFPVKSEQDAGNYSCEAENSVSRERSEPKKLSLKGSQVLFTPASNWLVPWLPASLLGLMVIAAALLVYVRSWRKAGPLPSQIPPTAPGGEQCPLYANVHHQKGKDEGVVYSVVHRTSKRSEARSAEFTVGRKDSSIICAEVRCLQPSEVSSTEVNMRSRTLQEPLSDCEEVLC
Description: FACS, SVT2.MSCV.gD.FcRH6 cells, PE mu anti-human IgG.

In test [6] the target is T6, cynomolgus FcRH5 on stably transfected SVT2 cells (cynomologous monkey).
T6 construct: also called cyno FcRH5; cynoFcRH5
T6 chain: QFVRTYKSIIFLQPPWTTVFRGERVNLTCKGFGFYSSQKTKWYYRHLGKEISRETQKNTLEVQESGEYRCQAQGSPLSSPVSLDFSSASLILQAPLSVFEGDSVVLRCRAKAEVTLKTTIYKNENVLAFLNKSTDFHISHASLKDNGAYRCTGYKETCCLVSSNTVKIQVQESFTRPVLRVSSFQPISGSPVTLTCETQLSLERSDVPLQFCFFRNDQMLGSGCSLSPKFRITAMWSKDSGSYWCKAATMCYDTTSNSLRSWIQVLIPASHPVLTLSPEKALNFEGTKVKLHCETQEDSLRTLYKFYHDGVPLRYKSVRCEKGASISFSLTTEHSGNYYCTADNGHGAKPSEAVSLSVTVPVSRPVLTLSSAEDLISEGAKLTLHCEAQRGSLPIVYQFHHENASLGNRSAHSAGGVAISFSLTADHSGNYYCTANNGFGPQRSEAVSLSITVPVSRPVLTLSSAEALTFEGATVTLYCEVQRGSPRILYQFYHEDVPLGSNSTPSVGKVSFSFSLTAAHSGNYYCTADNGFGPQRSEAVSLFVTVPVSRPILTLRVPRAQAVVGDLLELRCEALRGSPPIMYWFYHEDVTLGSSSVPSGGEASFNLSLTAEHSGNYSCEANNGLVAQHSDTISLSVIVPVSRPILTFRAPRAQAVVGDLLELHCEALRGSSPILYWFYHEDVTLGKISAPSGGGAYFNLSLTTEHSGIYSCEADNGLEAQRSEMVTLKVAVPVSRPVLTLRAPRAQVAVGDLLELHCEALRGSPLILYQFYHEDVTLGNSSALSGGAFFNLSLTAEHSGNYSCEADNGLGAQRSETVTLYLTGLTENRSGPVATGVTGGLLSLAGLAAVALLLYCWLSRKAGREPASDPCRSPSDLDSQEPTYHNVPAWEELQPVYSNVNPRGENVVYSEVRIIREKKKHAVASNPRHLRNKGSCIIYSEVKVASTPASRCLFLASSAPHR
Description: Scatchard analysis: 0.5 nM 125I-labeled antibody competed with the unlabeled antibody (50 to 0.02 nM) on SVT2.cyFcRH5 cells, 4 h at 4 C; St. Error 0.091. As for the experimental part:
To further determine binding of the FcRH5 murine antibodies and IgG clones, binding of iodinated IgG variants to OPM2 cells expressing human FcRH5 and SVT2 cells expressing cynomologous FcRH5, Scatchard analysis was performed (Table 9A).
For Scatchard analysis, 0.5 nM I¹²⁵ labeled murine or IgG clone anti-FcRH5 was competed against unlabeled murine or IgG clone anti-FcRH5, respectively, ranging from 50 to 0.02 nM (12 step 1:2 serial dilution) in the presence of a transfected OPM2 line stably expressing human-FcRH5 and a transfected SVT2 line stably expressing cynomologous-FcRH5. After a four hour incubation at 4° C., cells were washed and cell pellet counts were read by a gamma counter (1470 WIZARD Automatic Gamma Counter; Perkin Elmer, Walthem, Mass.). All points were done in triplicate and counted for 10 minutes. The average CPM was used for Kd calculation using the New Ligand (Genentech, South San Francisco, Calif.) program.

B1: chimeric anti-human FcRH5 antibody 7D11 (antibody, human IgG1, kappa)
heavy: not shown
light: DILLTQSPAILSVSPGERVSFSCRSSQSIGTNIHWYQQRTNGSPRLLIKFASESLSGIPSRFSGSGSGTDFTLSINSVESEDFADYYCQQSNSWPLTFGAGTKVEIKRTVAAPSVFIFPPSDEQLKSGTASVVCLLNNFYPREAKVQWKVDNALQSGNSQESVTEQDSKDSTYSLSSTLTLSKADYEKHKVYACEVTHQGLSSPVTKSFNRGEC
notes: Mouse/human chimeric IgG1 kappa expressed in 293 cells; also called ch7D11; Ch anti-FcRH5 (7D11)
In the case of B1, the binding result in test [1], in test [2], in test [3], in test [4] and in test [5] was “no binding (tested: 1.0 ug per about 10^6 cells (p-1120))” each time.

B2: chimeric anti-human FcRH5 antibody 13G9 (antibody, human IgG1, kappa)
heavy: not shown
light: DIVMTQSQKIMSTSVGDRVNVTCKASQNVGSNVAWYHQKPGQSPKALIYSASYRYSGVPDRFTGSGSGTDFTLTISNVQSEDLAEYFCQQYKTWTFGGGTKLEIKRTVAAPSVFIFPPSDEQLKSGTASVVCLLNNFYPREAKVQWKVDNALQSGNSQESVTEQDSKDSTYSLSSTLTLSKADYEKHKVYACEVTHQGLSSPVTKSFNRGEC
notes: Expressed in 293 cells; also called ch13G9; chMAFcRH5 (13G9)
B2 yielded a Kd in test [6] of 1.08 nM.

The values are drawn from patent US20130089497A1 (Genentech, published 2013).
